Data published in PMC314469, “Protein Interaction Networks by Proteome Peptide Scanning” (PLoS Biology, 2004).

T1: Yfr024 SH3 (LSB3_YEAST), P43603
T1 chain: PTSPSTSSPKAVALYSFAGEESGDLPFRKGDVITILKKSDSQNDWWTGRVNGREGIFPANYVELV

T2: Boi2 SH3 (BOI2_YEAST), P39969
T2 chain: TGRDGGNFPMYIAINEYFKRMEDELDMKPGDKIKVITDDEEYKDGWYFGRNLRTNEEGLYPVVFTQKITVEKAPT

T3: Yhr016c SH3 (YSC84_YEAST), P32793
T3 chain: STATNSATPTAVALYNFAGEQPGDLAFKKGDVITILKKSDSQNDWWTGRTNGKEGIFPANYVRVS

T4: Rvs167 SH3 (RV167_YEAST), P39743
T4 chain: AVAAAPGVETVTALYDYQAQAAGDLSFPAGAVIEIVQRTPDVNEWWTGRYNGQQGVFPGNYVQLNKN

T5: Boi1 SH3 (BOI1_YEAST), P38041
T5 chain: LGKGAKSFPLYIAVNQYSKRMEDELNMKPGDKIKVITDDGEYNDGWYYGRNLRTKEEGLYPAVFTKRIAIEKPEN


Biological target: T1, Yfr024 SH3 (LSB3_YEAST), P43603
Assay: SPOT array

| Binder | normalised SPOT signal, Boehringer light units (BLU); mean over the file's lines of this peptide |
| --- | --- |
| DSPPQSPRRSSNSS [YKL185W 464-477] | 15900 |
| DVLPAGPVRSLEGV [YLR460C 130-143] | 4 |
| DVLPAGPVRSLEGA [YCR102C 122-135] | 137 |
| DSIPVDPEKVVAIV [YBL015W 216-229] | 0 |
| DSLPFAPLRKVYEL [YBR056W 139-152] | 322 |
| DQAPSLPPKPNTQL [YCL008C 158-171] | 17600 |
| DLQPLEPKKAAAST [YBL007C 805-818] | 37.7 |
| DMVPKHPTKRYVPK [YOR039W 203-216] | 1770 |
| DSGPQRPKRTRAKG [YDL106C 73-86] | 38900 |
| DSIPSRPQRRKSVL [YMR221C 258-271] | 27600 |
| DPHPEDPRRIYRIY [YNL021W 81-94] | 161 |
| DSIPLEPKKAKHLM [YHR118C 82-95] | 141 |
| DLPPKFPEKPVHLV [YDR444W 186-199] | 10300 |
| DQKPLVPIRIYGAI [YPR023C 316-329] | 5150 |
| DPLPYSPLKLYDQK [YCR065W 382-395] | 117 |
| DSDPNTPKKLSSPR [YNL238W 661-674] | 28.1 |
| DVIPKKPLKSAADK [YOL055C 314-327] | 359 |
| DRPPDVPRKIIVGR [YBL067C 301-314] | 2970 |
| DSLPKLPFRSWGQP [YBR132C 490-503] | 39100 |

Biological target: T2, Boi2 SH3 (BOI2_YEAST), P39969
Assay: SPOT array

| Binder | normalised SPOT signal, Boehringer light units (BLU); mean over the file's lines of this peptide |
| --- | --- |
| DSPPQSPRRSSNSS [YKL185W 464-477] | 15.6 |
| DVLPAGPVRSLEGV [YLR460C 130-143] | 44 |
| DVLPAGPVRSLEGA [YCR102C 122-135] | 45.9 |
| DSIPVDPEKVVAIV [YBL015W 216-229] | 22.2 |
| DSLPFAPLRKVYEL [YBR056W 139-152] | 34.7 |
| DQAPSLPPKPNTQL [YCL008C 158-171] | 72.2 |
| DLQPLEPKKAAAST [YBL007C 805-818] | 104 |
| DMVPKHPTKRYVPK [YOR039W 203-216] | 114 |
| DSGPQRPKRTRAKG [YDL106C 73-86] | 91.1 |
| DSIPSRPQRRKSVL [YMR221C 258-271] | 334 |
| DPHPEDPRRIYRIY [YNL021W 81-94] | 40.8 |
| DSIPLEPKKAKHLM [YHR118C 82-95] | 26.5 |
| DLPPKFPEKPVHLV [YDR444W 186-199] | 25.7 |
| DQKPLVPIRIYGAI [YPR023C 316-329] | 88.8 |
| DPLPYSPLKLYDQK [YCR065W 382-395] | 134 |
| DSDPNTPKKLSSPR [YNL238W 661-674] | 22.9 |
| DVIPKKPLKSAADK [YOL055C 314-327] | 35.9 |
| DRPPDVPRKIIVGR [YBL067C 301-314] | 62.3 |
| DSLPKLPFRSWGQP [YBR132C 490-503] | 25.7 |

Biological target: T3, Yhr016c SH3 (YSC84_YEAST), P32793
Assay: SPOT array

| Binder | normalised SPOT signal, Boehringer light units (BLU); mean over the file's lines of this peptide |
| --- | --- |
| DSPPQSPRRSSNSS [YKL185W 464-477] | 3410 |
| DVLPAGPVRSLEGV [YLR460C 130-143] | 0 |
| DVLPAGPVRSLEGA [YCR102C 122-135] | 221 |
| DSIPVDPEKVVAIV [YBL015W 216-229] | 0 |
| DSLPFAPLRKVYEL [YBR056W 139-152] | 200 |
| DQAPSLPPKPNTQL [YCL008C 158-171] | 4710 |
| DLQPLEPKKAAAST [YBL007C 805-818] | 0 |
| DMVPKHPTKRYVPK [YOR039W 203-216] | 460 |
| DSGPQRPKRTRAKG [YDL106C 73-86] | 4170 |
| DSIPSRPQRRKSVL [YMR221C 258-271] | 4310 |
| DPHPEDPRRIYRIY [YNL021W 81-94] | 75.3 |
| DSIPLEPKKAKHLM [YHR118C 82-95] | 206 |
| DLPPKFPEKPVHLV [YDR444W 186-199] | 183 |
| DQKPLVPIRIYGAI [YPR023C 316-329] | 1280 |
| DPLPYSPLKLYDQK [YCR065W 382-395] | 216 |
| DSDPNTPKKLSSPR [YNL238W 661-674] | 156 |
| DVIPKKPLKSAADK [YOL055C 314-327] | 37 |
| DRPPDVPRKIIVGR [YBL067C 301-314] | 358 |
| DSLPKLPFRSWGQP [YBR132C 490-503] | 60200 |

Biological target: T4, Rvs167 SH3 (RV167_YEAST), P39743
Assay: SPOT array

| Binder | normalised SPOT signal, Boehringer light units (BLU); mean over the file's lines of this peptide |
| --- | --- |
| DSPPQSPRRSSNSS [YKL185W 464-477] | 41.3 |
| DVLPAGPVRSLEGV [YLR460C 130-143] | 32.7 |
| DVLPAGPVRSLEGA [YCR102C 122-135] | 0 |
| DSIPVDPEKVVAIV [YBL015W 216-229] | 37.9 |
| DSLPFAPLRKVYEL [YBR056W 139-152] | 156 |
| DQAPSLPPKPNTQL [YCL008C 158-171] | 32.3 |
| DLQPLEPKKAAAST [YBL007C 805-818] | 30.3 |
| DMVPKHPTKRYVPK [YOR039W 203-216] | 94.1 |
| DSGPQRPKRTRAKG [YDL106C 73-86] | 218 |
| DSIPSRPQRRKSVL [YMR221C 258-271] | 651 |
| DPHPEDPRRIYRIY [YNL021W 81-94] | 14.1 |
| DSIPLEPKKAKHLM [YHR118C 82-95] | 33.7 |
| DLPPKFPEKPVHLV [YDR444W 186-199] | 90.9 |
| DQKPLVPIRIYGAI [YPR023C 316-329] | 114 |
| DPLPYSPLKLYDQK [YCR065W 382-395] | 62.6 |
| DSDPNTPKKLSSPR [YNL238W 661-674] | 0 |
| DVIPKKPLKSAADK [YOL055C 314-327] | 9.7 |
| DRPPDVPRKIIVGR [YBL067C 301-314] | 92.5 |
| DSLPKLPFRSWGQP [YBR132C 490-503] | 16100 |

Biological target: T5, Boi1 SH3 (BOI1_YEAST), P38041
Assay: SPOT array

| Binder | normalised SPOT signal, Boehringer light units (BLU); mean over the file's lines of this peptide |
| --- | --- |
| DSPPQSPRRSSNSS [YKL185W 464-477] | 309 |
| DVLPAGPVRSLEGV [YLR460C 130-143] | 28.2 |
| DVLPAGPVRSLEGA [YCR102C 122-135] | 24.6 |
| DSIPVDPEKVVAIV [YBL015W 216-229] | 50 |
| DSLPFAPLRKVYEL [YBR056W 139-152] | 61.9 |
| DQAPSLPPKPNTQL [YCL008C 158-171] | 54.8 |
| DLQPLEPKKAAAST [YBL007C 805-818] | 121 |
| DMVPKHPTKRYVPK [YOR039W 203-216] | 160 |
| DSGPQRPKRTRAKG [YDL106C 73-86] | 460 |
| DSIPSRPQRRKSVL [YMR221C 258-271] | 1520 |
| DPHPEDPRRIYRIY [YNL021W 81-94] | 660 |
| DSIPLEPKKAKHLM [YHR118C 82-95] | 389 |
| DLPPKFPEKPVHLV [YDR444W 186-199] | 0 |
| DQKPLVPIRIYGAI [YPR023C 316-329] | 181 |
| DPLPYSPLKLYDQK [YCR065W 382-395] | 58.9 |
| DSDPNTPKKLSSPR [YNL238W 661-674] | 108 |
| DVIPKKPLKSAADK [YOL055C 314-327] | 142 |
| DRPPDVPRKIIVGR [YBL067C 301-314] | 96.5 |
| DSLPKLPFRSWGQP [YBR132C 490-503] | 179 |
